Assay results taken from patent US20200247849A1, “PEPTIDE AGONISTS AND ANTAGONISTS OF TLR4 ACTIVATION” (PEPTICOM LTD, priority 2016, published 2020).

Molecular target: T1, CD14-TLR4 (Homo sapiens, UniProt P08571)
T1 construct: expressed in transfected cells; host or cells: NIH3T3
T1 sequence (P08571 20-345 limits assumed): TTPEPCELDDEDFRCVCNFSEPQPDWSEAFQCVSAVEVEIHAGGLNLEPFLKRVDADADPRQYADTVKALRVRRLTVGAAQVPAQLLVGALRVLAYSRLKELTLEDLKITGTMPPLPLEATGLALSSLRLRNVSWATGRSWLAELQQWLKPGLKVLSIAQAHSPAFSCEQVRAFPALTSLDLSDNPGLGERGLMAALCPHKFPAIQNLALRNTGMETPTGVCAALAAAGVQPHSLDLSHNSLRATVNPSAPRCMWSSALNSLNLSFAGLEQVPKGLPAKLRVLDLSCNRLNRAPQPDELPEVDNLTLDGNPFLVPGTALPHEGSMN
Assay: Reporter gene assay, NIH3T3 cells transfected with CD14 and TLR4, LPS-mediated activation
Assay type: cell-based
Settings: FIG. 6I
Description: FIGS. 6A-6V present peptide activity using NIH3T3 cells that express TLR4, with either the MD2 co-receptor (top) or CD14 co-receptor (bottom), for peptides of SEQ ID Nos. 1-22, respectively, according to some embodiments of the invention. FIGS. 6A-6V show the dose response inhibitor/activator effects of the designed peptides using a reporter gene assay. The reporter gene assay is composed of NIH3T3 cells transfected with either MD2 or CD14 along with TLR4 and the NF-κB-inducible reporter gene Secreted Alkaline Phosphatase (SEAP) to monitor TLR4 activation (Burger-Kentischer et al. 2010, A new cell-based innate immune receptor assay for the examination of receptor activity, ligand specificity, signaling pathways and the detection of pyrogens. J Immunol Methods. 358(1-2): 93-103). […] The receptors are coupled to for the detection of inhibitory activity, cells were treated with the peptide prior to exposure to LPS and the response to LPS is measured at variable peptide doses (as labeled). […]
At Day 3: To determine the final SEAP value, 50 μl of the supernatant is carefully transferred in a new 96-well plate (Greiner-F-plate) and 50 μl of the substrate (pNPP; p-nitrophenyl phosphate) is added. SEAP catalyzes the hydrolysis of pNPP to the final product para-nitrophenol (yellow) which can be detected by a photometric analysis using an UV-VIS reader at 405 nm. […]

inhibition of LPS mediated CD14-TLR4 activation: inability of to inhibit
Sequence: ILFMGMKWL (Inhibitor) [SEQ ID No. 9]
